Measured values: paper PMC10938568

Molecular target: GST-PreScission-p62 FIR 4P (human) (UniProt Q13501)
Assay: SPR

Substance: His8-TEV-LC3B (1 to 125) (from UniProt Q9GZQ8 1-120) (natural protein)
- Kd estimated from the kinetics: 80 nM
- half-life: 20 min
